Data from US20100292181.

Key:
[1] = target: GST-tagged recombinant human cofilin
[2] = target: T1, Synthetic peptide S3 conjugated to a penetratin peptide
T1 chain: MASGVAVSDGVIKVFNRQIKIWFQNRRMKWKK

GST-tagged recombinant human cofilin, sequence (chain, as listed by the source): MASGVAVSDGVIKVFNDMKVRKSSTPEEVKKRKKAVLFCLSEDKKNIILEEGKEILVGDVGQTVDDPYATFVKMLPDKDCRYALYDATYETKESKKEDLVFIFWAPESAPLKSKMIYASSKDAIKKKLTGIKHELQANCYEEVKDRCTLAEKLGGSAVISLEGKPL

B1: purified LIMK1 (protein)
chain: GSSARQKPVLRSCSIDRSPGAGSLGSPASQRKDLGRSESLRVVCRPHRIFRPSDLIHGEVLGKGCFGQAIKVTHRETGEVMVMKELIRFDEETQRTFLKEVKVMRCLEHPNVLKFIGVLYKDKRLNFITEYIKGGTLRGIIKSMDSQYPWSQRVSFAKDIASGMAYLHSMNIIHRDLNSHNCLVRENKNVVVADFGLARLMVDEKTQPEGLRSLKKPDRKKRYTVVGNPYWMAPEMINGRSYDEKVDVFSFGIVLCEIIGRVNADPDYLPRTMDFGLNVRGFLDRYCPPNCPPSFFPITVRCCDLDPEKRPSFVKLEHWLETLRMHLAGHLPLGPQLEQLDRGFWETYRRGESG
- cofilin phosphorylation in the in vitro LIMK1 kinase assay (western blot for phospho-cofilin ser3) [1]: the phosphorylation of cofilin by LIMK1
- cofilin phosphorylation in the in vitro LIMK1 kinase assay (western blot for phospho-cofilin ser3) [2]: S3 inhibited cofilin phosphorylation by LIMK1
